Results on one protein are retold here after FireProtDB (doi:10.1021/bi00150a028).

For this series the following is noted: Homo sapiens, pH 3, Thermal, DSC, glycine-HCl 0.05 M, reversible: yes, whole UniProt chain shown.

B1: Lysozyme C wild type, P61626 (protein)
chain: MKALIVLGLVLLSVTVQGKVFERCELARTLKRLGMDGYRGISLANWMCLAKWESGYNTRATNYNAGDRSTDYGIFQINSRYWCNDGKTPGAVNACHLSCSALLQDNIADAVACAKRVVRDPQGIRAWVAWRNRCQNRDVRQYVQGCGV
For B1, the Tm stood at 71.4 °C. For the setting “57 °C”, the “heat capacity change of unfolding” value was found to be 1.55 kcal/mol/K, the “unfolding enthalpy (calorimetric)” value was 101 kcal/mol and the unfolding free energy amounted to 4.6 kcal/mol.

As usually defined, the Tm is the temperature at which the thermal transition is half complete.
